Results as given in PMC12205653 (The Journal of Biological Chemistry, 2025).
One block for each molecule: values may come before it.

Tests used:
[1] = target: endogenous CAPN2 (human (endogenous in MDA-MB-231)) (UniProt P17655)
[2] = target: T1, LgBiT-CAPNS1 (mammalian expression construct) (human, UniProt P04632 60-268); assay: split reporter (BiFC, NanoBiT); LgBiT and SmBiT fusions coexpressed pairwise in transfected HEK293T cells; luciferase signal of cell lysates as fold change over a LgBiT-alone control; settings: partners not purified
T1 construct: CAPNS1, human, PEF(S) domain, residues 60-268, in pBiT1.1-N (TK/LgBiT); source: HEK293T, transfected, in lysate; not shown: LgBiT, N-terminal, kept
T1 sequence (looked up): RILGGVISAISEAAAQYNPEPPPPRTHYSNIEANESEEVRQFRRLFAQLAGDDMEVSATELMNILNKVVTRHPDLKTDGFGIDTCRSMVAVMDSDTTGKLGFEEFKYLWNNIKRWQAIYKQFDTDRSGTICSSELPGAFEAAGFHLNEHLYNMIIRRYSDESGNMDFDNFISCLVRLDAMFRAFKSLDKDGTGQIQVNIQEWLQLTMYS

[3] = target: T2, His10-LgBiT-CAPNS1 (human, UniProt P04632 60-268); assay: split reporter (BiFC, NanoBiT); crude bacterial lysates with approximately equimolar biosensor components; 5 mM Mg2+, no Ca2+; fold over His10-LgBiT-CAPNS1 alone; settings: partners not purified
T2 construct: CAPNS1, calpain small regulatory subunit, human, penta-EF-hand domain PEF(S), residues 60-268; Cloned in pET16b; also called CAPNS1 PEF(S) biosensor component; source: E. coli BL21 RIPL; not shown: His10, N-terminal, kept; LgBiT, N-terminal, kept
T2 sequence (looked up): T1 sequence (looked up)

[4] = target: T2, His10-LgBiT-CAPNS1; assay: split reporter (BiFC, NanoBiT); fixed 100 nM LgBiT-CAPNS1, increasing SmBiT-CAPN1/2, 5 mM Mg2+ in place of Ca2+; estimated KD from the inflection of the plot assuming first-order kinetics; settings: both partners purified
[5] = target: T2, His10-LgBiT-CAPNS1; assay: split reporter (BiFC, NanoBiT); fixed 100 nM LgBiT-CAPNS1, increasing SmBiT component, 5 mM Ca2+; estimated KD from the inflection of the plot assuming first-order kinetics; for CAPNS1 with CAPNS1: dimer to monomers; settings: both partners purified

Chain of endogenous CAPN2 (human (endogenous in MDA-MB-231)) (P17655 20-700): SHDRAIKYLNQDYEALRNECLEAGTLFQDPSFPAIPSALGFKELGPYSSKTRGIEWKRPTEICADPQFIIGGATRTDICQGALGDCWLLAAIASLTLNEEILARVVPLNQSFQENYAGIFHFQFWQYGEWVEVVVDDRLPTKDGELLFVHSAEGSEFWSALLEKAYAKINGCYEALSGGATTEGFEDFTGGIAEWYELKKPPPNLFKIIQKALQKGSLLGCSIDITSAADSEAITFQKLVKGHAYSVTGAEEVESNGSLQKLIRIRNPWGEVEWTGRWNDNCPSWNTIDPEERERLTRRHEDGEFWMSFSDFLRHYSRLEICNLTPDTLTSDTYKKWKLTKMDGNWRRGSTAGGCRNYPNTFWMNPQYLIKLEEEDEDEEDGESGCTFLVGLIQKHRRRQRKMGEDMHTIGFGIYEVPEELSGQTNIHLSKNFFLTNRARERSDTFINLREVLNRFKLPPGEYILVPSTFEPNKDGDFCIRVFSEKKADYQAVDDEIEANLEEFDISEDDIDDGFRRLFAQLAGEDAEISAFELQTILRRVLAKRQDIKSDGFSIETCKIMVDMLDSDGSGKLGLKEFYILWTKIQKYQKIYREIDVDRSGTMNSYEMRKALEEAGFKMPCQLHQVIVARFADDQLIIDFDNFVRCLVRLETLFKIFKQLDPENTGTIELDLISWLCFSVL

calpain-2 casein proteolytic activity (zymography of cell lysates), standardized to CAPN2 expression, against WT CAPNS1 [1]: 51 % of the WT
Molecule: recombinant CAPNS1 Q263R (pMSCV_CAPNS1) (from UniProt P04632 1-268) (natural protein)

Kd [5]: 635 nM
B3: His6-MBP-SmBiT-CAPNS1 (domain or fragment, human, UniProt P04632 60-268, looked up)
chain: T1 sequence (looked up)
notes: CAPNS1, calpain small regulatory subunit, human, penta-EF-hand domain PEF(S), residues 60-268; Same CAPNS1 stretch as m1 with other tags; m4 with m1 measures the PEF(S):PEF(S) homodimer of CAPNS1; not shown: His6, N-terminal, kept; MBP, N-terminal, kept; SmBiT, N-terminal, kept

Further lines, the molecule ahead of its results:

B1: SmBiT-CAPN1 (mammalian expression construct) (domain or fragment, human, UniProt P07384 538-714, looked up)
chain: LSEEEIDENFKALFRQLAGEDMEISVKELRTILNRIISKHKDLRTKGFSLESCRSMVNLMDRDGNGKLGLVEFNILWNRIRNYLSIFRKFDLDKSGSMSAYEMRMAIESAGFKLNKKLYELIITRYSEPDLAVDFDNFVCCLVRLETMFRFFKTLDTDLDGVVTFDLFKWLQLTMFA
notes: CAPN1, human, PEF(L) domain, residues 538-714, in pBiT2.1-N (TK/SmBiT); source: HEK293T, transfected, in lysate; not shown: SmBiT, N-terminal, kept
fold increase of bioluminescence over LgBiT-CAPNS1 alone [2]: ~400 fold

B2: His6-MBP-SmBiT-CAPN1 (domain or fragment, human, UniProt P07384 538-714, looked up)
chain: B1 chain
notes: CAPN1, calpain-1 catalytic subunit, human, penta-EF-hand domain PEF(L), residues 538-714; Cloned in pHT29 (modified pET16b); also called CAPN1 PEF(L) biosensor component; source: E. coli BL21 RIPL; not shown: His6, N-terminal, kept; MBP, N-terminal, kept; SmBiT, N-terminal, kept
fold signal over LgBiT-CAPNS1 alone [3]: 47 fold
Kd [4]: 362 nM
Kd [5]: 185 nM
